Assay results as given in the supplement of paper PMC5998384.

Assays:
HeLa Kyoto [1] = assay: solubility in G1/S (NP-40 vs SDS abundance) (log2 ratio); higher = more soluble; settings: cell cycle stage: G1/S
HeLa Kyoto [2] = assay: solubility change mitosis vs G1/S (difference of NP-40 vs SDS log2 ratios) (log2 ratio difference); higher = more soluble in mitosis
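For solubility change mitosis vs G1/S (difference of NP-40 vs SDS log2 ratios) in this document: synchronized HeLa Kyoto cells (double thymidine block for G1/S, nocodazole release for mitosis), protein amounts in NP-40 versus SDS lysates quantified by mass spectrometry, three biological replicates.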
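For solubility in G1/S (NP-40 vs SDS abundance) in this document: HeLa Kyoto cells arrested at G1/S by double thymidine block, proteins quantified by TMT10plex mass spectrometry in mild NP-40 versus SDS extracts, three biological replicates.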

Sequence	solubility in G1/S (log2) (HeLa Kyoto [1])	solubility change mitosis (log2) (HeLa Kyoto [2])
MIKCLSVEVQAKLRSGLAISSLGQCVEELALNSIDAEAKCVAVRVNMETFQVQVIDNGFGMGSDDVEKVGNRYFTSKCHSVQDLENPRFYGFRGEALANIADMASAVEISSKKNRTMKTFVKLFQSGKALKACEADVTRASAGTTVTVYNLFYQLPVRRKCMDPRLEFEKVRQRIEALSLMHPSISFSLRNDVSGSMVLQLPKTKDVCSRFCQIYGLGKSQKLREISFKYKEFELSGYISSEAHYNKNMQFLFVNKRLVLRTKLHKLIDFLLRKESIICKPKNGPTSRQMNSSLRHRSTPELYGIYVINVQCQFCEYDVCMEPAKTLIEFQNWDTLLFCIQEGVKMFLKQEKLFVELSGEDIKEFSEDNGFSLFDATLQKRVTSDERSNFQEACNNILDSYEMFNLQSKAVKRKTTAENVNTQSSRDSEATRKNTNDAFLYIYESGGPGHSKMTEPSLQNKDSSCSESKMLEQETIVASEAGENEKHKKSFLEHSSLENPCGTSLEMFLSPFQTPCHFEESGQDLEIWKESTTVNGMAANILKNNRIQNQPKRFKDATEVGCQPLPFATTLWGVHSAQTEKEKKKESSNCGRRNVFSYGRVKLCSTGFITHVVQNEKTKSTETEHSFKNYVRPGPTRAQETFGNRTRHSVETPDIKDLASTLSKESGQLPNKKNCRTNISYGLENEPTATYTMFSAFQEGSKKSQTDCILSDTSPSFPWYRHVSNDSRKTDKLIGFSKPIVRKKLSLSSQLGSLEKFKRQYGKVENPLDTEVEESNGVTTNLSLQVEPDILLKDKNRLENSDVCKITTMEHSDSDSSCQPASHILNSEKFPFSKDEDCLEQQMPSLRESPMTLKELSLFNRKPLDLEKSSESLASKLSRLKGSERETQTMGMMSRFNELPNSDSSRKDSKLCSVLTQDFCMLFNNKHEKTENGVIPTSDSATQDNSFNKNSKTHSNSNTTENCVISETPLVLPYNNSKVTGKDSDVLIRASEQQIGSLDSPSGMLMNPVEDATGDQNGICFQSEESKARACSETEESNTCCSDWQRHFDVALGRMVYVNKMTGLSTFIAPTEDIQAACTKDLTTVAVDVVLENGSQYRCQPFRSDLVLPFLPRARAERTVMRQDNRDTVDDTVSSESLQSLFSEWDNPVFARYPEVAVDVSSGQAESLAVKIHNILYPYRFTKGMIHSMQVLQQVDNKFIACLMSTKTEENGEAGGNLLVLVDQHAAHERIRLEQLIIDSYEKQQAQGSGRKKLLSSTLIPPLEITVTEEQRRLLWCYHKNLEDLGLEFVFPDTSDSLVLVGKVPLCFVEREANELRRGRSTVTKSIVEEFIREQLELLQTTGGIQGTLPLTVQKVLASQACHGAIKFNDGLSLQESCRLIEALSSCQLPFQCAHGRPSMLPLADIDHLEQEKQIKPNLTKLRKMAQAWRLFGKAECDTRQSLQQSMPPCEPP [MLH3]	-0.402	0.153
MILQRLFRFSSVIRSAVSVHLRRNIGVTAVAFNKELDPIQKLFVDKIREYKSKRQTSGGPVDASSEYQQELERELFKLKQMFGNADMNTFPTFKFEDPKFEVIEKPQA [ATP5J]	-0.962	0.55
MIMNKMKNFKRRFSLSVPRTETIEESLAEFTEQFNQLHNRRNENLQLGPLGRDPPQECSTFSPTDSGEEPGQLSPGVQFQRRQNQRRFSMEDVSKRLSLPMDIRLPQEFLQKLQMESPDLPKPLSRMSRRASLSDIGFGKLETYVKLDKLGEGTYATVFKGRSKLTENLVALKEIRLEHEEGAPCTAIREVSLLKNLKHANIVTLHDLIHTDRSLTLVFEYLDSDLKQYLDHCGNLMSMHNVKIFMFQLLRGLAYCHHRKILHRDLKPQNLLINERGELKLADFGLARAKSVPTKTYSNEVVTLWYRPPDVLLGSTEYSTPIDMWGVGCIHYEMATGRPLFPGSTVKEELHLIFRLLGTPTEETWPGVTAFSEFRTYSFPCYLPQPLINHAPRLDTDGIHLLSSLLLYESKSRMSAEAALSHSYFRSLGERVHQLEDTASIFSLKEIQLQKDPGYRGLAFQQPGRGKNRRQSIF [CDK18]	0.0482	-0.00432
MIRDLSKMYPQTRHPAPHQPAQPFKFTISESCDRIKEEFQFLQAQYHSLKLECEKLASEKTEMQRHYVMYYEMSYGLNIEMHKQAEIVKRLNAICAQVIPFLSQEHQQQVVQAVERAKQVTMAELNAIIGQQLQAQHLSHGHGLPVPLTPHPSGLQPPAIPPIGSSAGLLALSSALGGQSHLPIKDEKKHHDNDHQRDRDSIKSSSVSPSASFRGAEKHRNSADYSSESKKQKTEEKEIAARYDSDGEKSDDNLVVDVSNEDPSSPRGSPAHSPRENGLDKTRLLKKDAPISPASIASSSSTPSSKSKELSLNEKSTTPVSKSNTPTPRTDAPTPGSNSTPGLRPVPGKPPGVDPLASSLRTPMAVPCPYPTPFGIVPHAGMNGELTSPGAAYAGLHNISPQMSAAAAAAAAAAAYGRSPVVGFDPHHHMRVPAIPPNLTGIPGGKPAYSFHVSADGQMQPVPFPPDALIGPGIPRHARQINTLNHGEVVCAVTISNPTRHVYTGGKGCVKVWDISHPGNKSPVSQLDCLNRDNYIRSCRLLPDGRTLIVGGEASTLSIWDLAAPTPRIKAELTSSAPACYALAISPDSKVCFSCCSDGNIAVWDLHNQTLVRQFQGHTDGASCIDISNDGTKLWTGGLDNTVRSWDLREGRQLQQHDFTSQIFSLGYCPTGEWLAVGMENSNVEVLHVTKPDKYQLHLHESCVLSLKFAHCGKWFVSTGKDNLLNAWRTPYGASIFQSKESSSVLSCDISVDDKYIVTGSGDKKATVYEVIY [TLE4]	-0.00686	-0.13
MKEMVGGCCVCSDERGWAENPLVYCDGHACSVAVHQACYGIVQVPTGPWFCRKCESQERAARVRCELCPHKDGALKRTDNGGWAHVVCALYIPEVQFANVLTMEPIVLQYVPHDRFNKTCYICEEQGRESKAASGACMTCNRHGCRQAFHVTCAQMAGLLCEEEVLEVDNVKYCGYCKYHFSKMKTSRHSSGGGGGGAGGGGGSMGGGGSGFISGRRSRSASPSTQQEKHPTHHERGQKKSRKDKERLKQKHKKRPESPPSILTPPVVPTADKVSSSASSSSHHEASTQETSESSRESKGKKSSSHSLSHKGKKLSSGKGVSSFTSASSSSSSSSSSSGGPFQPAVSSLQSSPDFSAFPKLEQPEEDKYSKPTAPAPSAPPSPSAPEPPKADLFEQKVVFSGFGPIMRFSTTTSSSGRARAPSPGDYKSPHVTGSGASAGTHKRMPALSATPVPADETPETGLKEKKHKASKRSRHGPGRPKGSRNKEGTGGPAAPSLPSAQLAGFTATAASPFSGGSLVSSGLGGLSSRTFGPSGSLPSLSLESPLLGAGIYTSNKDPISHSGGMLRAVCSTPLSSSLLGPPGTSALPRLSRSPFTSTLPSSSASISTTQVFSLAGSTFSLPSTHIFGTPMGAVNPLLSQAESSHTEPDLEDCSFRCRGTSPQESLSSMSPISSLPALFDQTASAPCGGGQLDPAAPGTTNMEQLLEKQGDGEAGVNIVEMLKALHALQKENQRLQEQILSLTAKKERLQILNVQLSVPFPALPAALPAANGPVPGPYGLPPQAGSSDSLSTSKSPPGKSSLGLDNSLSTSSEDPHSGCPSRSSSSLSFHSTPPPLPLLQQSPATLPLALPGAPAPLPPQPQNGLGRAPGAAGLGAMPMAEGLLGGLAGSGGLPLNGLLGGLNGAAAPNPASLSQAGGAPTLQLPGCLNSLTEQQRHLLQQQEQQLQQLQQLLASPQLTPEHQTVVYQMIQQIQQKRELQRLQMAGGSQLPMASLLAGSSTPLLSAGTPGLLPTASAPPLLPAGALVAPSLGNNTSLMAAAAAAAAVAAAGGPPVLTAQTNPFLSLSGAEGSGGGPKGGTADKGASANQEKG [MLLT6]	-1.14	0.828
MKLLSLVAVVGCLLVPPAEANKSSEDIRCKCICPPYRNISGHIYNQNVSQKDCNCLHVVEPMPVPGHDVEAYCLLCECRYEERSTTTIKVIIVIYLSVVGALLLYMAFLMLVDPLIRKPDAYTEQLHNEEENEDARSMAAAAASLGGPRANTVLERVEGAQQRWKLQVQEQRKTVFDRHKMLS [TMEM9]	0.254	0.292
